Biological target: rainbow trout IL-2 (IL-2A), FLAG-tagged, from insect cells (rainbow trout (Oncorhynchus mykiss))
Test: SEC; Superose 12 column, PBS (-), 0.5 ml/min, 10-15 μg protein purified from insect cell supernatant; calibrated with standard proteins

stoichiometry N: 2
Substance: rainbow trout IL-2 (IL-2A), FLAG-tagged, from insect cells (ligand)

Reference: paper PMC7658486
